Laboratory results from patent publication US20120308554A1, “VEGF-D/VEGFR2/3-MEDIATED REGULATION OF DENDRITES” (UNIVERSITAT HEIDELBERG, priority 2011, published 2012).

What was measured:
Assay type in all cases: cell-based, mice
ERK1/2 = assay: Immunoblot analysis with phospho-specific antibodies, ERK1/2; details: rVEGFD treatment for various lengths of time
Experimental: (§1) A: Immunoblot analysis using phosphor-specific antibodies of hippocampal neurons with or without rVEGFD treatment for the indicated times. Tubulin was used as loading control.
(§2) B: Quantification of the experiment shown in A. rVEGFD treatment causes a significant increase of CREB, ERK1/2 and p38 MAP kinase phosphorylation. All values are expressed as percentage of untreated controls (n=5).
(§3) Next, the signaling mechanisms through which VEGFD controls dendrite architecture were determined. Cell lysates from hippocampal neurons treated with rVEGFD for various lengths of time were subjected to immunoblot analysis using a large panel of antibodies that are specific for the phosphorylated (i.e. activated) forms of signaling molecules (FIG. 9). […] Therefore, it was determined whether p38 MAPK mediates the effects of VEGFD on dendrite geometry. […] Because SB203580 inhibits the alpha and beta isoforms of p38 MAPK, the role of p38 MAPK in VEGFD-mediated dendritic arborization by RNAi was further investigated. Two pAAVs, shp38α and shp38β, that contain expression cassettes for shRNAs specific for the alpha and the beta isoform, respectively, of p38 MAPK, were generated.

CREB = assay: Immunoblot analysis with phospho-specific antibodies, CREB; details: rVEGFD treatment for various lengths of time
Experimental: as §1, §2, §3

p38 MAP kinase = assay: Immunoblot analysis with phospho-specific antibodies, p38 MAP kinase; details: rVEGFD treatment for various lengths of time
Experimental: as §1, §2, §3

hippocampal cultures = assay: MEA recordings of spontaneous network activity; details: rAAV-shVEGFD infected cultures, 100 ng/ml rVEGFD added to media
Experimental: MEA recordings were done as known in the art. From DIV7 to DIV13, recordings of spontaneous network activity were acquired for 5 min once per day.

hippocampal neurons = assay: Morphometric analyses (total dendritic length, Sholl analysis, spine density) of cultured hippocampal neurons
Experimental: Hippocampal neurons from newborn C57BL/6 mice were cultured as known in the art. Experiments were done after a culturing period of 10 to 14 days in vitro (DIV). DNA transfection was done on DIV8 using Lipofectamine 2000 (Invitrogen, San Diego, Calif.). For the studies on dendrite morphology, neurons were analyzed 4-5 days after transfection.
For 3D Sholl Analysis, total dendritic length and spine morphology were calculated using Object-Image freeware software with a specific set of macros (written by Dr. E. Ruthazer, McGill University, Quebec). Briefly, a z-Stack acquisition was imported, calibrated in Object-Image and manually traced. Total dendritic length was then computed. For Sholl analysis, the shell interval was set at 5 μm. All analyses were performed blind. In all in vitro experiments, for each condition, a minimum of 12 neurons from three independent preparations was analyzed. For the Golgi staining quantifications of 20 neurons for each condition from 4 different injected animals per viral construct were traced and analyzed.
Hippocampal neurons were fixed with 4% paraformaldehyde at room temperature for 20 min. For immunostaining, primary and secondary antibodies were applied in GDB buffer (30 mM phosphate buffer [pH7.4] containing 0.2% gelatin, 0.5% Triton X-100, and 0.9 M NaCl). For the morphometric analyses, fluorescence images were acquired using a confocal laser-scanning microscope TCS SP2 (Leica, Mannheim, Germany) equipped with an inverted fluorescence microscope DM IRE2 (Leica) and Leica confocal scan software. All images were obtained with sequential acquisition setting at a resolution of 1024×1024 pixels. Each image was a z series projection of images taken at 1 μm intervals.

B1: rVEGFD: recombinant mouse VEGFD (R&D Systems) (protein)
chain: FAATFYDTETLKVIDEEWQRTQCSPRETCVEVASELGKTTNTFFKPPCVNVFRCGGCCNEEGVMCMNTSTSYISKQLFEISVPLTSVPELVPVKIANHTGCKCLPTGPRHPYSIIRR
ERK1/2 phosphorylation (ERK1/2): significant but moderate | CREB phosphorylation (CREB): significant but moderate | activation of p38 MAPK (p38 MAP kinase): very robust | rescue of decreased spike frequency (hippocampal cultures): partly rescued | dendrite length or complexity (hippocampal neurons; neurons transfected with pAAV-shSCR and pAAV-emptymC, rVEGFD 100 ng/ml 3 days): did not affect dendrite length or complexity | neuronal morphology (hippocampal neurons; neurons without nuclear calcium signaling blockade): no detectable effect on neuronal morphology | effect on reduction of dendrite length and complexity caused by shVEGFD (hippocampal neurons; pAAV-shVEGFD transfected neurons, rVEGFD 100 ng/ml 3 days or co-transfection): reversed | restoration of spine density in CaMBP4 or CaMKIVK75E expressing neurons (hippocampal neurons; rVEGFD 100 ng/ml 3 days or VEGFD-HA expression): failed to restore normal spine density | rescue of reduction in dendrite length and complexity caused by CaMBP4 or CaMKIVK75E (hippocampal neurons; recombinant factors 100 ng/ml for 3 days, or VEGFD-HA expression): rescued the reduction in dendrite length and complexity
